Reference: patent US10434147B2, “Treatment type 2 diabetes mellitus patients” (Sanofi-Aventis Deutschland GmbH, priority 2015, dated 2019)

Key:
Type in all cases: in vivo, human
[1] = system: Patients with Type 2 Diabetes Insufficiently Controlled with Insulin Glargine with or without Metformin; test: Body weight, 26-week study
Excerpt: (§1) FIG. 6—Graphical study design. ^1 Insulin glargine should be injected subcutaneously once daily at dinner or breakfast time (according to patient's/investigators' preference). […] Meal used for insulin glulisine dosing should remain the same throughout the 26-week treatment period. ^4 Injection of insulin glulisine prior to breakfast, lunch and dinner.
(§2) Co-primary endpoints at 26 weeks were (1) non-inferiority (95% CI upper bound <0.4%) in HbA1c reduction with LIXI vs GLU-1 and (2) for LIXI vs GLU-3, either non-inferiority in HbA1c reduction (2a) OR superiority (one-sided α≤0.025) in body weight change (2b). FPG, PPG, IG dose, composite outcomes, AEs, and hypoglycemia were assessed.

[2] = system: Patients with Type 2 Diabetes Insufficiently Controlled with Insulin Glargine with or without Metformin; test: Insulin dose (insulin glargine, insulin glulisine), 26-week study
Excerpt: as §1, §2

[3] = system: Patients with Type 2 Diabetes Insufficiently Controlled with Insulin Glargine with or without Metformin; test: Treatment-emergent adverse events, 26-week study
Excerpt: as §1, §2

[4] = Baseline (before IMP), mITT population
[5] = Week 26 (LOCF), mITT population
[6] = Safety population, PT ≥ 3% table

Substance: Insulin Glulisine QD: insulin glulisine once daily, added to insulin glargine ± metformin (comparator arm)
- Body weight, Change from baseline to Week 26 (LOCF), LS Mean (SE) ([1]; ANCOVA, mITT population): 1.03 (0.276) kg
- Body weight change to Week 26, LS Mean difference (SE) of Lixisenatide vs. the labelled insulin glulisine arm ([1]; ANCOVA, mITT population, p <.0001): −1.66 (0.305) kg
- Body Weight, BL mean ± SD ([1]; BL, mITT, Example 2 table): 88.4 ± 15.9 kg
- Body weight, Baseline, Mean (SD) [1, 4]: 88.37 (15.88) kg
- Body weight, Baseline, Median [1, 4]: 88.00 kg
- Body weight, Week 26 (LOCF), Mean (SD) [1, 5]: 89.31 (16.27) kg
- Body weight, Week 26 (LOCF), Median [1, 5]: 88.40 kg
- Body Weight, Week 26 (LOCF) mean ± SD ([1]; Week 26 (LOCF), mITT, Example 2 table): 89.3 ± 16.3 kg
- Body Weight, LS mean ± SE change from BL ([1]; Week 26, mITT, Example 2 table): 1.0 ± 0.3 kg
- Body Weight, LS mean treatment difference (lixisenatide vs the labelled arm) ([1]; Week 26, mITT, p < 0.0001, Example 2 table): -1.7 kg
- Body weight, Change from baseline to Week 26 (LOCF), Mean (SD) ([1]; mITT population): 0.94 (2.50) kg
- Body weight, Change from baseline to Week 26 (LOCF), Median ([1]; mITT population): 0.90 kg
- Insulin glargine dose change to Week 26, LS Mean difference (SE) of Lixisenatide vs. the labelled insulin glulisine arm ([2]; ANCOVA, mITT population): 0.76 (1.104) U
- Insulin glargine dose, Change from baseline to Week 26 (LOCF), LS Mean (SE) ([2]; ANCOVA, mITT population): −0.06 (0.999) U
- Insulin Glargine dose, BL (end run-in) mean ± SD ([2]; BL (end run-in), mITT): 65 ± 32 U/day
- Insulin glargine dose, Baseline, Mean (SD) [2, 4]: 64.79 (32.09) U
- Insulin glargine dose, Baseline, Median [2, 4]: 58.00 U
- Insulin Glargine dose, Screening (start run-in) mean ± SD ([2]; Screening (start run-in), mITT): 40 ± 22 U/day
- Insulin Glargine dose, Week 26 (LOCF) mean ± SD ([2]; Week 26 (LOCF), mITT): 64 ± 36 U/day
- Insulin glargine dose, Week 26 (LOCF), Mean (SD) [2, 5]: 63.89 (35.67) U
- Insulin glargine dose, Week 26 (LOCF), Median [2, 5]: 54.00 U
- Insulin Glargine dose, LS mean + SE change from BL ([2]; Week 26, mITT): −0.1 ± 1.0 U/day
- Insulin Glargine dose, LS mean treatment difference (lixisenatide vs the labelled arm) ([2]; Week 26, mITT): 0.8 U/day
- Insulin glargine dose, Change from baseline to Week 26 (LOCF), Mean (SD) ([2]; mITT population): −0.91 (13.41) U
- Insulin glargine dose, Change from baseline to Week 26 (LOCF), Median ([2]; mITT population): −1.33 U
- Patients with any TEAE leading to death ([3]; Safety population): 0 n (%)
- Patients with treatment emergent SAE: Accidental overdose ([3]; Safety population): 2 (0.7%) n (%)
- Patients with TEAE: Accidental overdose [3, 6]: 13 (4.3%) n (%)
- Patients with TEAE: Headache [3, 6]: 8 (2.7%) n (%)
- Patients with TEAE: Hypoglycaemia [3, 6]: 140 (46.5%) n (%)
- Patients with TEAE: Infections and infestations (SOC) [3, 6]: 70 (23.3%) n (%)
- Patients with TEAE: Influenza [3, 6]: 8 (2.7%) n (%)
- Patients with TEAE: Injury, poisoning and procedural complications (SOC) [3, 6]: 20 (6.6%) n (%)
- Patients with TEAE: Investigations (SOC) [3, 6]: 76 (25.2%) n (%)
- Patients with TEAE: Metabolism and nutrition disorders (SOC) [3, 6]: 143 (47.5%) n (%)
- Adjudicated by PSAC: Acute on chronic pancreatitis ([3]; in vivo): 0 n (%)
- Adjudicated by PSAC: Acute pancreatitis ([3]; in vivo): 0 n (%)
- Adjudicated by PSAC: Chronic pancreatitis ([3]; in vivo): 0 n (%)
- Adjudicated by PSAC: Unknown pancreatitis ([3]; in vivo): 0 n (%)
- Gastrointestinal AEs: Diarrhea ([3]; in vivo): 10 (3) n (%)
- Gastrointestinal AEs: Nausea ([3]; in vivo): 5 (2) n (%)
- Gastrointestinal AEs: Vomiting ([3]; in vivo): 5 (2) n (%)
- Patients with TEAE on the specific adverse event form for increased calcitonin (>=20 ng/L): Any ([3]; in vivo): 0 n (%)
- Patients with TEAE on the specific adverse event form for increased calcitonin (>=20 ng/L): Blood calcitonin increased ([3]; in vivo): 0 n (%)
- Patients with TEAE: Any class ([3]; in vivo): 222 (73.8%) n (%)
- Patients with TEAE: Blood glucose decreased ([3]; in vivo): 67 (22.3%) n (%)
- Patients with TEAE: Diarrhoea ([3]; in vivo): 10 (3.3%) n (%)
- Patients with TEAE: Gastrointestinal disorders (SOC) ([3]; in vivo): 26 (8.6%) n (%)
- Patients with TEAE: Nasopharyngitis ([3]; in vivo): 21 (7.0%) n (%)
- Patients with TEAE: Nausea ([3]; in vivo): 5 (1.7%) n (%)
- Patients with TEAE: Nervous system disorders (SOC) ([3]; in vivo): 22 (7.3%) n (%)
- Patients with TEAE: Upper respiratory tract infection ([3]; in vivo): 5 (1.7%) n (%)
- Patients with TEAE: Vomiting ([3]; in vivo): 5 (1.7%) n (%)
- Patients with any TEAE ([3]; in vivo): 222 (73.8%) n (%)
- Patients with any TEAE leading to permanent treatment discontinuation ([3]; in vivo): 2 (0.7%) n (%)
- Patients with any treatment emergent SAE ([3]; in vivo): 11 (3.7%) n (%)
- Patients with events adjudicated as allergic reaction by ARAC: All, Any category, Any event ([3]; in vivo): 0 n (%)
- Patients with events adjudicated as allergic reaction by ARAC: OTHER ALLERGIC REACTION, Rhinitis allergic ([3]; in vivo): 0 n (%)
- Patients with events adjudicated as allergic reaction by ARAC: Possibly Related to IMP, Any event ([3]; in vivo): 0 n (%)
- Patients with events adjudicated as allergic reaction by ARAC: URTICARIA (HIVES), Urticaria ([3]; in vivo): 0 n (%)
- Patients with treatment emergent SAE: Abdominal pain ([3]; in vivo): 0 n (%)
- Patients with treatment emergent SAE: Angina pectoris ([3]; in vivo): 0 n (%)
- Patients with treatment emergent SAE: Angina unstable ([3]; in vivo): 1 (0.3%) n (%)
- Patients with treatment emergent SAE: Ankle fracture ([3]; in vivo): 1 (0.3%) n (%)
- Patients with treatment emergent SAE: Any class ([3]; in vivo): 11 (3.7%) n (%)
- Patients with treatment emergent SAE: Atrial fibrillation ([3]; in vivo): 1 (0.3%) n (%)
- Patients with treatment emergent SAE: Atrioventricular block complete ([3]; in vivo): 0 n (%)
- Patients with treatment emergent SAE: Basal cell carcinoma ([3]; in vivo): 0 n (%)
- Patients with treatment emergent SAE: Cardiac disorders (SOC) ([3]; in vivo): 3 (1.0%) n (%)
- Patients with treatment emergent SAE: Cardiac failure chronic ([3]; in vivo): 0 n (%)
- Patients with treatment emergent SAE: Cardiac failure congestive ([3]; in vivo): 0 n (%)
- Patients with treatment emergent SAE: Cellulitis ([3]; in vivo): 1 (0.3%) n (%)
- Patients with treatment emergent SAE: Cerebrovascular accident ([3]; in vivo): 0 n (%)
- Patients with treatment emergent SAE: Decreased appetite ([3]; in vivo): 0 n (%)
- Patients with treatment emergent SAE: Dehydration ([3]; in vivo): 1 (0.3%) n (%)
